Laboratory results as given in paper PMC11341715.

Legend:
[1] = molecular target: biotinylated multidomain FZD3 (C-terminally truncated, in detergent) (human) (UniProt Q9NPG1); assay: BLI; Octet Red 96e; biotinylated multidomain FZD3 or FZD6 in detergent immobilised, nanobody or DEP in solution; 10 mM HEPES pH 7.5, 150 mM NaCl, 0.02% Tween 20, 0.005% GDN; 1:1 binding model
[2] = molecular target: biotinylated FZD6 cysteine-rich domain (CRD) (human); assay: BLI; Octet Red 96e; biotinylated FZD3 or FZD6 CRD immobilised, Nb8 or Wnt5a in solution; 10 mM HEPES pH 7.5, 150 mM NaCl, 0.02% Tween 20, 0.005% GDN; 1:1 binding model
Sequence of biotinylated FZD6 cysteine-rich domain (CRD) (human) (O60353 22-139): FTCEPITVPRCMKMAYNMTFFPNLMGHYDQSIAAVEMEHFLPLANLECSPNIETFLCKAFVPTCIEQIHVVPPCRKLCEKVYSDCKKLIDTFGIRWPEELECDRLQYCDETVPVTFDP

[3] = molecular target: biotinylated FZD3 cysteine-rich domain (CRD) (human) (UniProt Q9NPG1); assay: as above

B1: DVL2 DEP domain (domain or fragment)
chain: PESGLEVRDRMWLKITIPNAFLGSDVVDWLYHHVEGFPERREARKYASGLLKAGLIRHTVNKITFSEQCYYVFGD
- Kd [1]: 460 nM

B2: Nb8 (VHH)
VHH: QVQLVESGGGLVQAGGSLRLSCAASGSISSINAMGWYRQAPGKQRELVAAITSGGSTNYADSVKGRFTISRDNAKNTVYLQMNSLKPGDTAVYYCNLLYYIDYVEYDYWGQGTQVTVSS
- Kd [2]: 1200 nM

B3: human Wnt5a (ligand)
chain: IIGAQPLCSQLAGLSQGQKKLCHLYQDHMQYIGEGAKTGIKECQYQFRHRRWNCSTVDNTSVFGRVMQIGSRETAFTYAVSAAGVVNAMSRACREGELSTCGCSRAARPKDLPRDWLWGGCGDNIDYGYRFAKEFVDARERERIHAKGSYESARILMNLHNNEAGRRTVYNLADVACKCHGVSGSCSLKTCWLQLADFRKVGDALKEKYDSAAAMRLNSRGKLVQVNSRFNSPTTQDLVYIDPSPDYCVRNESTGSLGTQGRLCNKTSEGMDGCELMCCGRGYDQFKTVQTERCHCKFHWCCYVKCKKCTEIVDQFVCK
- Kd [3]: 83 nM
